Data published in the supplement of paper PMC10567573.

B1: LRRC45 (parent)
chain: FQTRQEMTSMSAELKMRAIQAEER

Variants of: B1
Test: protein stability index of a GFP-peptide fusion (GPS, HEK-293T) (PSI 1-6); higher = more stable
Details: c terminus: a fixed tail appended
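Further: lentivirally expressed fusions sorted by FACS into six bins by GFP to DsRed ratio, PSI derived from sequencing read proportions per bin multiplied by bin number.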

Row | Variant | protein stability index
1 | FQTRQEMTSMSAELKNRAIQAEER | 4.16
2 | FQTRQEMTSMSAELKERAIQAEER | 4.68
3 | FQTRQEMTSMSAELKGRAIQAEER | 4
4 | FQTRQEMTSMSAELKPRAIQAEER | 3.98
5 | FQTRQEMTSMSAELKSRAIQAEER | 4.37
6 | FQTRQEMTSMSAELKDRAIQAEER | 4.38
7 | FQTRQEMTSMSAELKKRAIQAEER | 4.36
8 | FQTRQEMTSMSAELKLRAIQAEER | 4.24
9 | FQTRQEMTSMSAELKRRAIQAEER | 4.21
10 | FQTRQEMTSMSAELKQRAIQAEER | 4.03
11 | FQTRQEMTSMSAELKIRAIQAEER | 3.52
12 | FQTRQEMTSMSAELKCRAIQAEER | 3.79
13 | FQTRQEMTSMSAELKFRAIQAEER | 3.75
14 | FQTRQEMTSMSAELKARAIQAEER | 4.39
15 | FQTRQEMTSMSAELKHRAIQAEER | 3.88
16 | FQTRQEMTSMRAELKMRAIQAEER | 3.83
17 | FQTRQEMTSMYAELKMRAIQAEER | 2.93
18 | FQTRQEMTSMQAELKMRAIQAEER | 4.16
19 | FQTRQEMTSMGAELKMRAIQAEER | 3.97
20 | FQTRQEMTSMKAELKMRAIQAEER | 3.67
21 | FQTRQEMTSMPAELKMRAIQAEER | 3.73
22 | FQTRQEMTSMIAELKMRAIQAEER | 3.09
23 | FQTRQEMTSMHAELKMRAIQAEER | 4.43
24 | FQTRQEMTSMAAELKMRAIQAEER | 3.88

Row | Variant | protein stability index
25 | FQTRQEMTSMLAELKMRAIQAEER | 3.85
26 | FQTRQEMTSMVAELKMRAIQAEER | 3.74
27 | FQTRQEMTSMDAELKMRAIQAEER | 4.54
28 | FQTRQEMTSMMAELKMRAIQAEER | 3.68
29 | FQTRQEMTSMNAELKMRAIQAEER | 3.92
30 | FQTRQEMTSMEAELKMRAIQAEER | 3.98
31 | FQTRQEMTSMCAELKMRAIQAEER | 3.63
32 | FQTRQEMTSMTAELKMRAIQAEER | 3.73
33 | FQTRQEMTSMFAELKMRAIQAEER | 4.22
34 | FQTRQEMTSMWAELKMRAIQAEER | 1.96
35 | FQTRQEMTSMSAWLKMRAIQAEER | 2.97
36 | FQTRQEMTSMSAPLKMRAIQAEER | 3.69
37 | FQTRQEMTSMSAKLKMRAIQAEER | 3.61
38 | FQTRQEMTSMSACLKMRAIQAEER | 3.74
39 | FQTRQEMTSMSALLKMRAIQAEER | 3.1
40 | FQTRQEMTSMSAYLKMRAIQAEER | 2.73
41 | FQTRQEMTSMSAFLKMRAIQAEER | 3.1
42 | FQTRQEMTSMSAILKMRAIQAEER | 3.21
43 | FQTRQEMTSMSAHLKMRAIQAEER | 3.08
44 | FQTRQEMTSMSATLKMRAIQAEER | 3.53
45 | FQTRQEMTSMSAVLKMRAIQAEER | 3.35
46 | FQTRQEMTSMSAMLKMRAIQAEER | 3.47
47 | FQTRQEMTSMSADLKMRAIQAEER | 3.82
48 | FQTRQEMTSMSANLKMRAIQAEER | 3.1

Row | Variant | protein stability index
49 | FQTRQEMTSMSARLKMRAIQAEER | 3.57
50 | FQTRQEMTSMSAGLKMRAIQAEER | 3.6
51 | FQTRQEMTSMSAQLKMRAIQAEER | 4.04
52 | FQTRQEMTSMSAALKMRAIQAEER | 3.62
53 | FQTRQEMTSMSASLKMRAIQAEER | 3.83
54 | FQTRQEMTYMSAELKMRAIQAEER | 3.28
55 | FQTRQEMTMMSAELKMRAIQAEER | 4.17
56 | FQTRQEMTWMSAELKMRAIQAEER | 2.32
57 | FQTRQEMTFMSAELKMRAIQAEER | 3.02
58 | FQTRQEMTGMSAELKMRAIQAEER | 4.11
59 | FQTRQEMTQMSAELKMRAIQAEER | 3.73
60 | FQTRQEMTKMSAELKMRAIQAEER | 4.32
61 | FQTRQEMTAMSAELKMRAIQAEER | 4.43
62 | FQTRQEMTIMSAELKMRAIQAEER | 3.58
63 | FQTRQEMTDMSAELKMRAIQAEER | 4.05
64 | FQTRQEMTVMSAELKMRAIQAEER | 3.51
65 | FQTRQEMTNMSAELKMRAIQAEER | 4.28
66 | FQTRQEMTPMSAELKMRAIQAEER | 4.01
67 | FQTRQEMTTMSAELKMRAIQAEER | 3.96
68 | FQTRQEMTRMSAELKMRAIQAEER | 3.78
69 | FQTRQEMTCMSAELKMRAIQAEER | 3.41
70 | FQTRQEMTLMSAELKMRAIQAEER | 4.12
71 | FQTRQEMTHMSAELKMRAIQAEER | 3.84
72 | FQTRQEMTEMSAELKMRAIQAEER | 4.49

Row | Variant | protein stability index
73 | FQTRQECTSMSAELKMRAIQAEER | 3.6
74 | FQTRQEWTSMSAELKMRAIQAEER | 2.68
75 | FQTRQEPTSMSAELKMRAIQAEER | 3.71
76 | FQTRQEYTSMSAELKMRAIQAEER | 3.31
77 | FQTRQEKTSMSAELKMRAIQAEER | 4.02
78 | FQTRQELTSMSAELKMRAIQAEER | 3.77
79 | FQTRQEATSMSAELKMRAIQAEER | 4.26
80 | FQTRQESTSMSAELKMRAIQAEER | 4.27
81 | FQTRQEQTSMSAELKMRAIQAEER | 4.14
82 | FQTRQEETSMSAELKMRAIQAEER | 4.57
83 | FQTRQETTSMSAELKMRAIQAEER | 4.61
84 | FQTRQENTSMSAELKMRAIQAEER | 3.71
85 | FQTRQEFTSMSAELKMRAIQAEER | 3
86 | FQTRQEITSMSAELKMRAIQAEER | 3.41
87 | FQTRQERTSMSAELKMRAIQAEER | 4.26
88 | FQTRQEVTSMSAELKMRAIQAEER | 3.4
89 | FQTRQEGTSMSAELKMRAIQAEER | 3.93
90 | FQTRQEHTSMSAELKMRAIQAEER | 4.28
91 | FQTRQEDTSMSAELKMRAIQAEER | 4.64
92 | FQTRQEMTSHSAELKMRAIQAEER | 4.12
93 | FQTRQEMTSKSAELKMRAIQAEER | 4.07
94 | FQTRQEMTSPSAELKMRAIQAEER | 4.55
95 | FQTRQEMTSESAELKMRAIQAEER | 3.51
96 | FQTRQEMTSDSAELKMRAIQAEER | 3.98

Row | Variant | protein stability index
97 | FQTRQEMTSASAELKMRAIQAEER | 3.84
98 | FQTRQEMTSVSAELKMRAIQAEER | 3.94
99 | FQTRQEMTSFSAELKMRAIQAEER | 4.1
100 | FQTRQEMTSYSAELKMRAIQAEER | 3.97
101 | FQTRQEMTSWSAELKMRAIQAEER | 3.07
102 | FQTRQEMTSRSAELKMRAIQAEER | 4.16
103 | FQTRQEMTSISAELKMRAIQAEER | 3.69
104 | FQTRQEMTSQSAELKMRAIQAEER | 4.21
105 | FQTRQEMTSCSAELKMRAIQAEER | 2.53
106 | FQTRQEMTSGSAELKMRAIQAEER | 4.34
107 | FQTRQEMTSTSAELKMRAIQAEER | 4.28
108 | FQTRQEMTSSSAELKMRAIQAEER | 4.1
109 | FQTRQEMTSNSAELKMRAIQAEER | 4.14
110 | FQTRQEMTSLSAELKMRAIQAEER | 4.27
111 | FQTRQEMISMSAELKMRAIQAEER | 3.8
112 | FQTRQEMNSMSAELKMRAIQAEER | 3.92
113 | FQTRQEMKSMSAELKMRAIQAEER | 3.86
114 | FQTRQEMGSMSAELKMRAIQAEER | 4.33
115 | FQTRQEMSSMSAELKMRAIQAEER | 3.72
116 | FQTRQEMESMSAELKMRAIQAEER | 4.57
117 | FQTRQEMYSMSAELKMRAIQAEER | 2.69
118 | FQTRQEMHSMSAELKMRAIQAEER | 4.38
119 | FQTRQEMWSMSAELKMRAIQAEER | 1.34
120 | FQTRQEMPSMSAELKMRAIQAEER | 3.94

Row | Variant | protein stability index
121 | FQTRQEMMSMSAELKMRAIQAEER | 3.47
122 | FQTRQEMQSMSAELKMRAIQAEER | 4.28
123 | FQTRQEMDSMSAELKMRAIQAEER | 4.16
124 | FQTRQEMVSMSAELKMRAIQAEER | 3.76
125 | FQTRQEMRSMSAELKMRAIQAEER | 4.26
126 | FQTRQEMCSMSAELKMRAIQAEER | 3.11
127 | FQTRQEMASMSAELKMRAIQAEER | 3.85
128 | FQTRQEMFSMSAELKMRAIQAEER | 2.19
129 | FQTRQEMLSMSAELKMRAIQAEER | 3.79
130 | FQTRQTMTSMSAELKMRAIQAEER | 3.88
131 | FQTRQVMTSMSAELKMRAIQAEER | 3.11
132 | FQTRQEMTSMSAELRMRAIQAEER | 4.38
133 | FQTRQEMTSMSAELFMRAIQAEER | 2.97
134 | FQTRQEMTSMSAELVMRAIQAEER | 3.29
135 | FQTRQEMTSMSAELNMRAIQAEER | 4.26
136 | FQTRQEMTSMSAELWMRAIQAEER | 2.88
137 | FQTRQEMTSMSAELSMRAIQAEER | 4.23
138 | FQTRQEMTSMSAELPMRAIQAEER | 4.38
139 | FQTRQEMTSMSAELDMRAIQAEER | 4.65
140 | FQTRQEMTSMSAELCMRAIQAEER | 3.86
141 | FQTRQEMTSMSAELIMRAIQAEER | 3.27
142 | FQTRQEMTSMSAELLMRAIQAEER | 3.05
143 | FQTRQEMTSMSAELGMRAIQAEER | 4.2
144 | FQTRQEMTSMSAELEMRAIQAEER | 4.88

Row | Variant | protein stability index
145 | FQTRQEMTSMSAELMMRAIQAEER | 3.26
146 | FQTRQEMTSMSAELHMRAIQAEER | 4.16
147 | FQTRQEMTSMSAELTMRAIQAEER | 4.01
148 | FQTRQEMTSMSAELYMRAIQAEER | 3.59
149 | FQTRQEMTSMSAELAMRAIQAEER | 4.16
150 | FQTRQEMTSMSAELQMRAIQAEER | 4.12
151 | FQTRQEMTSMSCELKMRAIQAEER | 3.71
152 | FQTRQEMTSMSLELKMRAIQAEER | 3.92
153 | FQTRQEMTSMSTELKMRAIQAEER | 3.94
154 | FQTRQEMTSMSKELKMRAIQAEER | 3.92
155 | FQTRQEMTSMSFELKMRAIQAEER | 3.3
156 | FQTRQEMTSMSYELKMRAIQAEER | 3.39
157 | FQTRQEMTSMSIELKMRAIQAEER | 3.3
158 | FQTRQEMTSMSQELKMRAIQAEER | 4.29
159 | FQTRQEMTSMSDELKMRAIQAEER | 4.26
160 | FQTRQEMTSMSEELKMRAIQAEER | 4.44
161 | FQTRQEMTSMSSELKMRAIQAEER | 4.24
162 | FQTRQEMTSMSVELKMRAIQAEER | 3.47
163 | FQTRQEMTSMSMELKMRAIQAEER | 3.72
164 | FQTRQEMTSMSHELKMRAIQAEER | 4.12
165 | FQTRQEMTSMSGELKMRAIQAEER | 4.44
166 | FQTRQEMTSMSRELKMRAIQAEER | 3.73
167 | FQTRQEMTSMSPELKMRAIQAEER | 4.28
168 | FQTRQEMTSMSNELKMRAIQAEER | 3.3

Row | Variant | protein stability index
169 | FQTRQEMTSMSWELKMRAIQAEER | 2.04
170 | FQTRQEMTSMSAENKMRAIQAEER | 4.18
171 | FQTRQEMTSMSAEDKMRAIQAEER | 3.89
172 | FQTRQEMTSMSAECKMRAIQAEER | 3.72
173 | FQTRQEMTSMSAESKMRAIQAEER | 4.11
174 | FQTRQEMTSMSAEYKMRAIQAEER | 3.74
175 | FQTRQEMTSMSAEIKMRAIQAEER | 4.13
176 | FQTRQEMTSMSAEWKMRAIQAEER | 3.2
177 | FQTRQEMTSMSAEPKMRAIQAEER | 3.99
178 | FQTRQEMTSMSAEGKMRAIQAEER | 4.24
179 | FQTRQEMTSMSAETKMRAIQAEER | 4.38
180 | FQTRQEMTSMSAEAKMRAIQAEER | 4.16
181 | FQTRQEMTSMSAEKKMRAIQAEER | 4.12
182 | FQTRQEMTSMSAEFKMRAIQAEER | 3.21
183 | FQTRQEMTSMSAERKMRAIQAEER | 4.23
184 | FQTRQEMTSMSAEEKMRAIQAEER | 3.99
185 | FQTRQEMTSMSAEHKMRAIQAEER | 4.34
186 | FQTRQEMTSMSAEQKMRAIQAEER | 4.28
187 | FQTRQEMTSMSAEVKMRAIQAEER | 4.21
188 | FQTRQEMTSMSAEMKMRAIQAEER | 3.83
